# Results taken from US20240327502A1.
# Tests used:
# [1] = substrate: F protein of hMPV A virus (human metapneumovirus subtype A); test: cell-based or functional assay
# [2] = substrate: F protein of hMPV B virus (human metapneumovirus subtype B); test: cell-based or functional assay
binder,measurement,setting,value
"M3D09 (antibody, V domains shown) VH: QVQLVESGGGVVQSGKSLGLSCIASGFIFSNYALHWVRQAPGKGLEWLSVISYDGTNKYYANSVRGRFTVSRDNSKNTLFLHMNSLGVDDTAMYYCARDPERLADLGRMDFWGRGTLVAVLS VL: DIVMTQSPDSLAVSLGERATINCKSSQSVLFSPNNKNYLAWYQQKPGQPPKLLIYWASTREYGVPERFSGSGSGTDFTLTISSLQAEDVAVYYCQQYNSNPYTFGQGTKLEIR",PRNT IC50,[1],2 mg/L
same,PRNT IC50,[2],0.28 mg/L
"M4B04 (antibody, V domains shown) VH: QVQLVESGGGVVQPGKSLRLSCAASGFTFRSYTMFWVRQAPGKGLEWVAIILHDGTNRYYTDSVKGRFTISRDNTKNTVYLQMNSLRPEDTAMYYCARESLEWMLDWGQGTLVTVSS VL: EIVMTQSPATLSVSPGERATLSCRASQSLSGNLAWFQQKPGQAPRLLIYGTSTRATGIPARFSGSGSGTEFTLTISSLQSEDFAVYYCQQYNNWPPVFTFGPGTKVDIK",PRNT IC50,[1],4.59 mg/L
same,PRNT IC50,[2],1.97 mg/L
"M3C07 (antibody, V domains shown) VH: QLQLQESGPGLVKPWETLSLTCIVSGGSISRSTHYWGWIRQSPEMGLEWIGSIYYTGNTYYNPSFKSRVTISVDTSRNQLSLRVNSVSAADTARYYCARHETYDYGVFNIWGQGAMVTVSA VL: EIVLTQSPGTLSLSPGERAILSCRASQTVSSDYLAWYQQRPGQAPRLLIYDASSRATGVPDRFRGSGSGTDFTLTISRLEPEDFGVYYCQQYGSPYTFGQGTKLEIK",PRNT IC50,[1],> 10 mg/L
same,PRNT IC50,[2],> 10 mg/L
"M3E01 (antibody, V domains shown) VH: EVQLVESGGGLIQPGGSLRLSCTASGFTVSSKYMSWVRQAPGKGLEWVSLIYDGGSTYYADSVKGRFLISRDNAKNTLYLQMHSLRAEDTAVYYCARDRGTYSGYDWYSGMDVWGQGTTVTVSS VL: DIQLTQSPSFLSASVGDRITITCRASQGISSYLAWYQQKPGKAPKLLIYAASTLQSGVPSRFSGSGSGTEFNVTISSLQPEDFATYYCQQLKSYPGTFGQGTKVEIE",PRNT IC50,[1],> 10 mg/L
same,PRNT IC50,[2],> 10 mg/L
"M3D06 (antibody, V domains shown) VH: EVQLVESGGGLVQPGGSLRLSCAASGFPFNFYWMHWVRQAPREGLVWVSRINNDGSSPNYADSVWGRFTISRDNAKNTLYLQMHSLRAEDTAVYYCARAARFGDYVDQWGQGTLVTVSS VL: AIQLTQSPSSLSASMGDRVTITCRASQGISSAFAWYQQKPGKAPKLLIYDASTLESGVPSRFSGSGSGTDFTLTISSLQPEDFATYYCQQFNSYPLTFGGGTKVEIK",PRNT IC50,[1],> 10 mg/L
same,PRNT IC50,[2],> 10 mg/L
"M1A12 (antibody, V domains shown) VH: QVQLVQSGTEVKKPGSSVKVSCKDPGDIMSSHSIHWVRQAPGQGPEWMGRIIPLFGMKSYAPNFQGRVSISVDTSTNTAYLELSGLKSDDTAVYFCAREENLSWLDYWGQGTQVIVSS VL: EIVLTQSPATLSLSPGDRATLSCRASLRLSTNIAWYQQKPGQAPRLVIYDASKRATGIPARFSGSGSGTDFTLTISSLEPEDFAVYYCHQHSNWYTFGQGTKLEIK",PRNT IC50,[1],1.51 mg/L
same,PRNT IC50,[2],5 mg/L
"M2A09 (antibody, V domains shown) VH: QVQLVQSGAGVRKPGSSVKVSCKASGGTFSNYIISWVRQAPGQGLEYIGRIIPIVGMEKYEEKFQGRVKITADESTSTVSMELTSLKSEDTATYYCATEGLESGYPPYLEHWGRGTLVIVSS VL: EIVLTQSPGTLSLSPGERATLSCRTSQTVGAHLAWYQQKPGQSPRLLIYGASSRATGIPDRFSGSGSGTVFTLTINRLEPEDLAVYYCQQYGASPPTFGQGTKVEIK",PRNT IC50,[1],0.0133 mg/L
same,PRNT IC50,[2],0.0456 mg/L
"M3D12 (antibody, V domains shown) VH: QVQLQESGPGLVKPSQTLSLTCTVSGASVSSEYYYWSWIRQPPGKGLEWIGYIYHNGDTYYNPSLKGRGIISMDTSKNQFSLKLISVTAADTAVYYCARLAVAGVTGFHYWGLGTLVTVSS VL: EIVLTQSPDTLSLSPGERATLSCRASRSVRNYLAWYQQKPGQAPRLLIYDASNRAPGIPARFSGSGSETDFTLTISSLEPEDFAVYYCQQRSNWGLTFGGGTKVEIK",PRNT IC50,[1],0.0231 mg/L
same,PRNT IC50,[2],0.0145 mg/L
"M4A12 (antibody, V domains shown) VH: QLQESGSGPGLVKPSETLSLICNASGDSVTRNAYYWGWLRQPPGKGLEWIGIMYYSGSTFYNPSLKSRLTISVDTSKNQFSLKLRSVTAADTATYYCGEATLTTYDAFDVWGHGTMVTVSS VL: QSVLTQPPSVSAAPGQRVTISCSGGNSNIGKNYVSWYQQVPGTAPKLLIYENNKRPSGIPDRFSGSKSGTSATLGITGLQTGDEADYYCGAWDSSLNGVLFGGGTRLTVL",PRNT IC50,[1],> 10 mg/L
same,PRNT IC50,[2],0.0744 mg/L
"M1C11 (antibody, V domains shown) VH: QVQLVQSGAEMKKPGSSVKVSCKTSGGSFSSYPVSWVRQAPGQGPEWMGGIIPLSGTTHYAQMFQGRVSITADDSTRTVFMELTSLRSGDTAVYYCARSGAPTYYYDSSGFHGGAFHFWGQGTVVTVSS VL: DIVMTQSPDSLAVSLGERATINCKSSQSVLYSSNSKSYLAWYQQKPGQPPKLLIYWASSRESGVPDRFSGSGSGTDFTLTISSLQAEDVAVYYCQQFYTSPHTFGQGTKLEIKR",PRNT IC50,[1],5.92 mg/L
same,PRNT IC50,[2],0.444 mg/L
"M1A01 (antibody, V domains shown) VH: QVQLVQSGAEVKKPGSSVKVSCWASGGTFDNAINWLRQAPGQGPEWMGRIIPLVDIVNRAPKFQDRVSFTADKSTNTVYMVLNSLTSDDTAVYYCASAFQDGWFDPWGQGTLVTVSS VL: EIVLTQSPATLSLSPGERATLSCRASQSLSRYLAWYQQKPGQAPRLLIYDASNRATGVPARFSGSGSGTDFTLTISSLEPEDFAVYYCHQRHNWITFGQGTRLEIK",PRNT IC50,[1],3.41 mg/L
same,PRNT IC50,[2],4 mg/L
"M4A08 (antibody, V domains shown) VH: EVQLVESGGALVRPGGSLRVSCEASGFNFRTHWMHWVRQAPGKGLVWVARTNGDGSVTNYADSVKGRFTFFRDNAKNTLFLQMTSLRVDDTAVYYCARERLDYSSTRGHFPGDFDSWGQGTLVTVSS VL: DIVMTQSPDSLAVSLGERATINCKSSESVLYTSNSKNYLAWYQQKPGHPPKVLIYWASTRESGVPDRFSGSGSGTDFSLSISSLQAEDVAVYYCQQYFTIPRTFGQGTKVEIK",PRNT IC50,[1],0.136 mg/L
same,PRNT IC50,[2],0.344 mg/L
"M2D07 (antibody, V domains shown) VH: QVQLVESGGAVVQPGRSLRLSCAASGFTFTSFSMHWVRQAPGRGLEWVAVISHDGIIKYYADSVKGRFTISRDNSKNTVFLQMNSLRPEDTAVFYCARDFPGSRGFFRYYFDHWGQGTLVTVSS VL: DIQMTQSPSSLSASVGGSVTITCRVDQSISNDLHWYQQKPGKAPKLLISSASSLQSGVPSRFSGSGSGTDFTLTITSLQPEDFATYYCQQSYTTPPLFGQGTTLEIK",PRNT IC50,[1],1.07 mg/L
same,PRNT IC50,[2],2.5 mg/L
"M3E03 (antibody, V domains shown) VH: QVQLVESGGGVVQPGRSLRLSCVASGFPFDSFAMHWVRQAPGKGLEWVAIVWYDGGDKFYSESVKGRFSISRDNSRNTVFLQMNSLRAEDTAVYYCARGMITFDYWGPGTLVTVSS VL: EIVLTQSPGTLSLSPGERATLSCRASQNVDSSYLAWYQQKPGQAPRLLMYGASTRVAGIPDRFSGSGSGTDFTLTISRLEPEDFVVYYCQQYGTSPTWTFGQGTKVEIK",PRNT IC50,[1],0.0199 mg/L
same,PRNT IC50,[2],0.0762 mg/L
"M2D10 (antibody, V domains shown) VH: QVQLVQSGAEVKKPGASVRISCKPSGRAFLTYDINWVRQAPGQGLEWMAGMNPGSGNAAYAPKFQGRLTMIRNTSISTDYLELSSLTSEDTAVYYCARGEVSMRWRWLDPWGQGSLVTVTS VL: DIQMTQSPSSLSASVGDRVTITCRASQTISNFLNWYQQKPGRAPKVLIYAALNLQSGVPSRFRGSGSGTDFTLTINNLQPEDFAIYYCQQSYITPWTFGQGTKVEIK",PRNT IC50,[1],0.759 mg/L
same,PRNT IC50,[2],1.34 mg/L
"M2B07 (antibody, V domains shown) VH: EVQLVESGGGLVRPGGSLRLSCAASGFTFNNYWMHWVRQAPGKGLVWVSHVKSDGSITNYADSVKGRFTISRDNAKNTLYLEMSSLRVEDTAVYYCARESRPYDPLTGSHPDAFDIWGQGTMVTVSS VL: DIVMTQSPDSLAVSLGERATINCKSSESIFYYSNSKSYLAWYRQKPGQPPKLLIYWASTRESGVPDRFSGSGSGTDFTLTISSLQPEDVAVYYCQQYYTNPRTFGQGTRLEIK",PRNT IC50,[1],0.625 mg/L
same,PRNT IC50,[2],0.426 mg/L
"M4B01 (antibody, V domains shown) VH: EVQLLESGGGLVQPGGSLRLSCAASGFNFNTYAMSWVRQAPGKGLKWISTISGSGGVKYYADSVKGRFTISRDNSGSILYLQMNRLRADDTAVYYCAKSQNPQLVFFDSFDMWGQGSMVTVSS VL: QSVLTQAPSASAAPGQKVTISCSGSTSNIGNSYVSWYQQVPGTAPKLLIYEDNQRPSGIPDRFSGSKSGTSATLGITGLQTGDEADYYCGTWDNSLTEVVFGGGTKLTVL",PRNT IC50,[1],0.0371 mg/L
same,PRNT IC50,[2],0.0628 mg/L
"M2E06 (antibody, V domains shown) VH: EVQLVESGGDLVQPGGSLRLSCEASAFTFSDYAMTWVRQAPGKGLEWVSSINTSGGRTYYADSVKGRFTISRDNSKNTLYLQMKSLRAEDTAVYFCARFFYVMDVWGQGTTVTVSS VL: AIQMTQSPSSLSASVGDRVTITCRASQGVRNDLGWYQQKPGKAPKLLINAASGLQSGVPSRFSGSGSDTDFTLTISSLQPEDFATYYCLQVYSYPFTFGPGTKVDIK",PRNT IC50,[1],0.105 mg/L
same,PRNT IC50,[2],0.139 mg/L
"M4C02 (antibody, V domains shown) VH: QLQLQESGPRLVKPSETLSLTCSVSGGSISSSSLYWGWIRQSPGKGLEWIGTIYYGGSSDYNPSLKSRLTMSVDTSKNHFSLRLSSVTAADTAVYYCARVGSPVTTTVWFDPWGQGTLVTVSS VL: DIQMTQSPSSLAASIGDRVTITCRASQTISTYLNWYQQKPGKAPKLLIYAASTLQSGVPSRFSGSGSGTDFTLTISSLQPEDFATYYCQQTYSSLALTFGGGTKVEIR",PRNT IC50,[1],0.577 mg/L
same,PRNT IC50,[2],0.173 mg/L
"M6E10 (antibody, V domains shown) VH: QVQLVQSGAEVKKPGSSVKVSCNASGGIFDTNVINWVRQAPGQGLEWMGGIIPPFGTALYAHQFQGRLTLTVDESTNTAYMDLSSLRSDDTAVYFCARDRTVIKYADGMDVWGQGTTVTVSS VL: DIQMTQSPSSLSASVGDKVAITCRASQTISPYLNWYQQKPGKAPNLLIYGTNKLQSGVPLRFSGSGSGTDFTLTINGLQPEDFATYFCQQSHTTPLTFGGGTKVEIKR",PRNT IC50,[1],0.0237 mg/L
same,PRNT IC50,[2],0.0104 mg/L
